Experimental data as given in PMC8417553 (2021).

B1: CCR3 (protein)
chain: MTTSLDTVETFGTTSYYDDVGLLCEKADTRALMAQFVPPLYSLVFTVGLLGNVVVVMILIKYRRLRIMTNIYLLNLAISDLLFLVTLPFWIHYVRGHNWVFGHGMCKLLSGFYHTGLYSEIFFIILLTIDRYLAIVHAVFALRARTVTFGVITSIVTWGLAVLAALPEFIFYETEELFEETLCSALYPEDTVYSWRHFHTLRMTIFCLVLPLLVMAICYTGIIKTLLRCPSKKKYKAIRLIFVIMAVFFIFWTPYNVAILLSSYQSILFGNDCERSKHLDLVMLVTEVIAYSHCCMNPVIYAFVGERFRKYLRHFFHRHLLMHLGRYIPFLPSEKLERTSSVSPSTAEPELSIVF
modifications: FITC-labeled CCL11, POPC SMALPs with 30% cholesterol
B2: CCR3 (protein)
chain: B1 chain
modifications: FITC-labeled CCL11, proteoliposomes with 60% cholesterol
B3: CCR3 (protein)
chain: B1 chain
modifications: FITC-labeled CCL11, proteoliposomes with 40% cholesterol

Molecular target: CCL11 (eotaxin-1) 24-97 (Homo sapiens, UniProt P51671)
Sequence (P51671 24-97): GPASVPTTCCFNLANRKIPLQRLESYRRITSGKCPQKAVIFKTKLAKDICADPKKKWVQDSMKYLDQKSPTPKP
Assay: fluorescence polarization

Row | Binder | Kd [nM]
1 | B1 | 30
2 | B2 | 11
3 | B3 | 20
